In PMC4414177 (2015):

B1: JNK1α2 (protein)
chain: MSRSKRDNNFYSVEIGDSTFTVLKRYQNLKPIGSGAQGIVCAAYDAILERNVAIKKLSRPFQNQTHAKRAYRELVLMKCVNHKNIIGLLNVFTPQKSLEEFQDVYIVMELMDANLCQVIQMELDHERMSYLLYQMLCGIKHLHSAGIIHRDLKPSNIVVKSDCTLKILDFGLARTAGTSFMMTPYVVTRYYRAPEVILGMGYKENVDLWSVGCIMGEMVCHKILFPGRDYIDQWNKVIEQLGTPCPEFMKKLQPTVRTYVENRPKYAGYSFEKLFPDVLFPADSEHNKLKASQARDLLSKMLVIDASKRISVDEALQHPYINVWYDPSEAEAPPPKIPDKQLDEREHTIEEWKELIYKEVMDLEERTKNGVIRGQPSPLGAAVINGSQHPSSSSSVNDVSSMSTDPTLASDTDSSLEAAAGPLGCCR
modifications: 1 mM GSH
B2: JNK1α2 (protein)
chain: B1 chain
B3: JNK1α2 (protein)
chain: B1 chain
modifications: 1 mM GSH+8 μM MC3181
B4: TRAF2 CTD (protein)
chain: DQDKIEALSSKVQQLERSIGLKDLAMADLEQKVLEMEASTYDGVFIWKISDFARKRQEAVAGRIPAIFSPAFYTSRYGYKMCLRIYLNGDGTGRGTHLSLFFVVMKGPNDALLRWPFNQKVTLMLLDQNNREHVIDAFRPDVTSSSFQRPVNDMNIASGCPLFCPVSKMEAKNSYVRDDAIFIKAIVDLTGL
modifications: 1 mM GSH+8 μM MC3181
B5: TRAF2 CTD (protein)
chain: B4 chain
B6: TRAF2 CTD (protein)
chain: B4 chain
modifications: 1 mM GSH

Each binder was assayed against GSTP1-1 (Homo sapiens, UniProt P09211) (assay: ELISA).
In the case of B1, the Kd is reported as 2200 nM.
Binder B2 has a Kd of 420 nM.
With B3 the Kd was over 5000 nM.
For B4, the Kd was over 10000 nM.
For B5, the Kd was 280 nM.
With B6 the Kd was 3000 nM.
